According to patent US20150098955A1 (VIELA BIO, published 2015):

Experiments:
[1] = molecular target: Murine MegaCD40L (Axxora, cat. ALX522120) (murine) (UniProt P27548); assay: cell-based or functional assay
[2] = molecular target: Murine CD40L on cells (D10.G4 / D10G4.1 cells; activated murine T cells) (murine) (UniProt P27548); assay: cell-based or functional assay
[3] = molecular target: T1, Recombinant human CD40L (Human MegaCD40L; Axxora) (human, UniProt P29965 47-261, biotinylated with EZ-Link sulfo-NHS-biotin where used in the plate binding assay); assay: capture ELISA: His-tagged Tn3 captured on anti-His antibody, biotinylated Human MegaCD40L detected with SA-HRP
T1 construct: extracellular domain; Bought construct (Axxora ALX522110): two trimeric CD40 ligands linked via the ACRP30 collagen domain; also called biotinylated Human MegaCD40L; Mega human CD40L; not shown: FLAG tag and collagen domain of ACRP30/adiponectin that links two CD40L trimers
T1 sequence (looked up): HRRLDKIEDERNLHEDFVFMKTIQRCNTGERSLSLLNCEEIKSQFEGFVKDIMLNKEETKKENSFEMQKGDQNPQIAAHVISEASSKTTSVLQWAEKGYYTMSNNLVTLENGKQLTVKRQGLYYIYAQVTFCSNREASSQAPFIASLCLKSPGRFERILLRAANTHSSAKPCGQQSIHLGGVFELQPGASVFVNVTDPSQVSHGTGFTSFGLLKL

[4] = molecular target: T1, Recombinant human CD40L (Human …); assay: ProteOn XPR36 biosensor, human MegaCD40L immobilized on GLC chip, purified Tn3 as analyte
Description: Outputs were pool cloned into the soluble secretion vector as previously described, and five 96-well plates were screened for CD40L binding using the soluble protein screening assay described previously. Positive hits were identified relative to the signal obtained with the 311K4E backbone variant. […] PBS, 0.005% Tween20, 3 mM EDTA, pH7.4 was used as running buffer. Off-rates were ranked by visual inspection of the sensorgrams.

[5] = molecular target: Human CD40L, membrane form, on cells (Jurkat D1.1 cells; activated primary human T cells) (human) (UniProt P29965); assay: cell-based or functional assay
[6] = molecular target: T2, Human CD40L, membrane form, on cells (Jurkat D1.1 cells; activated primary human T cells) (human, UniProt P29965 1-261); assay: cell-based or functional assay
T2 sequence: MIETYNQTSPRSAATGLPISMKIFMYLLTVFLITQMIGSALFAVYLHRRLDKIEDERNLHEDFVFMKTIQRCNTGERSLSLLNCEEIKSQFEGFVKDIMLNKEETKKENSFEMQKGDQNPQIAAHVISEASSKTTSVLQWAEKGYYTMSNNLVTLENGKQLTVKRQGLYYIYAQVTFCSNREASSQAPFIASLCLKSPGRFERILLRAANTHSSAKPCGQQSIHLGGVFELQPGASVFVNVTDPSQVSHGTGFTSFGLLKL

[7] = molecular target: T2, Human CD40L, membrane form, on cells …; assay: cell-based or functional assay; remark: listed apart in the source
[8] = molecular target: T1, Recombinant human CD40L (Human …); assay: ProteOn XPR36 biosensor, human MegaCD40L immobilized on GLC chip, Tn3 as analyte, equilibrium analysis, 25 C
Description: ProteOn phosphate buffered saline with 0.005% Tween 20, pH 7.4 (PBS/Tween) was used as running buffer. Human MegaCD40L was immobilized on the chip at a surface density of approximately 2300 RU. […] Samples of each concentration were injected into the six analyte channels at a flow rate of 30 μl/min. for 300 seconds. The Kd was determined by using the equilibrium analysis setting within the ProteOn software.

[9] = molecular target: T1, Recombinant human CD40L (Human …); assay: cell-based or functional assay

## MR1 anti-murine CD40L monoclonal antibody
[1]
  IC50, inhibition of CD40L-induced NFκB activity: 0.2 nM
[2]
  IC50, inhibition of CD86 up regulation on CD19+ B cells (PBMC stimulated with D10.G4 cells): 0.23 nM

B1: 309 variant with the DE loop changed to the parent Tn3 DE loop sequence (designed binder)
chain: AIEVKDVTDTTALITWSDEFGHYDGCELTYGIKDVPGDRTTIDLTEDENQYSIGNLKPDTEYEVSLICYTDQEAGNPAKETFTTGGGTLGHHHHHHHH
[3]
  binding result: no binding

B2: Clone 311K4E_15 - Clone Variant from second round of affinity maturation (designed binder)
chain: AIEVEDVTDTTALITWTNRSSYANYHHCELTYGIKDVPGDRTTIDLELYVHYSIGNLKPDTEYEVSLICLTTDGTYSNPAKETFTTGGGTLGHHHHHHHH
notes: Secreted His8-tagged form
[4]
  Kd: 1.6 nM

B3: 309 variant with the BC loop changed to the parent Tn3 BC loop sequence (designed binder)
chain: AIEVKDVTDTTALITWFKPLAEIDGCELTYGIKDVPGDRTTIDLWWHSAWYSIGNLKPDTEYEVSLICYTDQEAGNPAKETFTTGGGTLGHHHHHHHH
[3]
  binding result: no binding

B4: 311-7GS bivalent tandem scaffold (designed binder)
chain: IEVKDVTDTTALITWTNRSSYYNLHGCELTYGIKDVPGDRTTIDLSSPYVHYSIGNLKPDTEYEVSLICLTTDGTYSNPAKETFTTGGGGSGGGGSGGGGSGGGGSGGGGSGGGGSGGGGSIEVKDVTDTTALITWTNRSSYYNLHGCELTYGIKDVPGDRTTIDLSSPYVHYSIGNLKPDTEYEVSLICLTTDGTYSNPAKETFTT
[5]
  fold improvement over monovalent 311, inhibition of human CD40L-induced expression on CD19 positive human PBMCs: 7 fold

B5: 311-3GS bivalent tandem scaffold (designed binder)
chain: IEVKDVTDTTALITWTNRSSYYNLHGCELTYGIKDVPGDRTTIDLSSPYVHYSIGNLKPDTEYEVSLICLTTDGTYSNPAKETFTTGGGGSGGGGSGGGGSIEVKDVTDTTALITWTNRSSYYNLHGCELTYGIKDVPGDRTTIDLSSPYVHYSIGNLKPDTEYEVSLICLTTDGTYSNPAKETFTT
[6]
  fold improvement over monovalent 311, inhibition of human CD40L-induced expression on CD19 positive human PBMCs: ~7 fold

B6: 311 variant with the BC loop changed to the parent Tn3 BC loop sequence (designed binder)
chain: AIEVKDVTDTTALITWFKPLAEIDGCELTYGIKDVPGDRTTIDLSSPYVHYSIGNLKPDTEYEVSLICLTTDGTYSNPAKETFTTGGGTLGHHHHHHHH
[3]
  binding result: no binding

B7: Clone 309FGwt - Parental clone with 'humanized' FG loop (designed binder)
chain: AIEVKDVTDTTALITWSDEFGHYDGCELTYGIKDVPGDRTTIDLWWHSAWYSIGNLKPDTEYEVSLICRRGDMSSNPAKETFTTGGGTLGHHHHHHHH
[7]
  PBMC IC50: 760 nM

B8: Clone 343 - Affinity Mature variant (designed binder)
chain: AIEVKDVTDTTALITWLDDWGSYHVCELTYGIKDVPGDRTTIDLWYHQAWYSIGNLKPDTEYEVSLICRRGDMSSNPAKETFTTGGGTLGHHHHHHHH
notes: Secreted His8-tagged form
[8]
  Kd: 2 nM
[7]
  PBMC IC50: 0.6 nM

B9: Clone 349 - Affinity Mature variant (designed binder)
chain: AIEVKDVTDTTALITWSDEHAEFIGCELTYGIKDVPGDRTTIDLWWHSAWYSIGNLKPDTEYEVSLICRRGDMSSNPAKETFTTGGGTLGHHHHHHHH
notes: Secreted His8-tagged form
[8]
  Kd: 21 nM
[7]
  PBMC IC50: 38.2 nM

B10: Clone 342 - Affinity Mature variant (w/WT FG loop) (designed binder)
chain: AIEVKDVTDTTALITWSDDFGEYVWCELTYGIKDVPGDRTTIDLWYHHAHYSIGNLKPDTEYEVSLICRRGDMSSNPAKETFTTGGGTLGHHHHHHHH
notes: Secreted His8-tagged form
[8]
  Kd: 1.4 nM
[7]
  PBMC IC50: 0.7 nM
[9]
  IC50, inhibition of human CD40L-induced NFκB activity (luciferase reporter HEK293 cells): 1.5 nM

B11: Clone 345 - Affinity Mature variant (designed binder)
chain: AIEVKDVTDTTALITWSDDFAEYVGCELTYGIKDVPGDRTTIDLWWHSAWYSIGNLKPDTEYEVSLICRRGDMSSNPAKETFTTGGGTLGHHHHHHHH
notes: Secreted His8-tagged form
[8]
  Kd: 39 nM
[7]
  PBMC IC50: 37.3 nM

B12: Clone 347 - Affinity Mature variant (designed binder)
chain: AIEVKDVTDTTALITWSDEVGQYVGCELTYGIKDVPGDRTTIDLWYHMAWYSIGNLKPDTEYEVSLICRRGDMSSNPAKETFTTGGGTLGHHHHHHHH
notes: Secreted His8-tagged form
[8]
  Kd: 10.7 nM
[7]
  PBMC IC50: 11 nM

B13: Clone 309 - Parental clone isolated from naive Tn3 library (designed binder)
chain: AIEVKDVTDTTALITWSDEFGHYDGCELTYGIKDVPGDRTTIDLWWHSAWYSIGNLKPDTEYEVSLICYTDQEAGNPAKETFTTGGGTLGHHHHHHHH
notes: Secreted His8-tagged form purified on Ni-NTA
[8]
  Kd: 191 nM
[7]
  PBMC IC50: 226 nM

B14: Clone 344 - Affinity Mature variant (designed binder)
chain: AIEVKDVTDTTALITWSDEVGDYVVCELTYGIKDVPGDRTTIDLWYHMAWYSIGNLKPDTEYEVSLICRRGDMSSNPAKETFTTGGGTLGHHHHHHHH
[7]
  PBMC IC50: 1.3 nM

B15: Clone 340 - Affinity Mature variant (designed binder)
chain: AIEVKDVTDTTALITWSDDFDNYEWCELTYGIKDVPGDRTTIDLWYHMAWYSIGNLKPDTEYEVSLICRRGDMSSNPAKETFTTGGGTLGHHHHHHHH
notes: Secreted His8-tagged form
[8]
  Kd: 2.2 nM
[7]
  PBMC IC50: 0.7 nM

B16: Clone 341 - Affinity Mature variant (designed binder)
chain: AIEVKDVTDTTALITWSDDFADYVWCELTYGIKDVPGDRTTIDLWWHSAWYSIGNLKPDTEYEVSLICRRGDMSSNPAKETFTTGGGTLGHHHHHHHH
[7]
  PBMC IC50: 0.7 nM

B17: Clone 346 - Affinity Mature variant (designed binder)
chain: AIEVKDVTDTTALITWSDDFEEYVVCELTYGIKDVPGDRTTIDLWWHSAWYSIGNLKPDTEYEVSLICRRGDMSSNPAKETFTTGGGTLGHHHHHHHH
notes: Secreted His8-tagged form
[8]
  Kd: 14.9 nM
[7]
  PBMC IC50: 9 nM

B18: Clone 348 - Affinity Mature variant (designed binder)
chain: AIEVKDVTDTTALITWSDDIGLYVWCELTYGIKDVPGDRTTIDLWFHQAWYSIGNLKPDTEYEVSLICRRGDMSSNPAKETFTTGGGTLGHHHHHHHH
notes: Secreted His8-tagged form
[8]
  Kd: 1.8 nM
[7]
  PBMC IC50: 1 nM

B19: 311 variant with the DE loop changed to the parent Tn3 DE loop sequence (designed binder)
chain: AIEVKDVTDTTALITWTNRSSYYNLHGCELTYGIKDVPGDRTTIDLTEDENQYSIGNLKPDTEYEVSLICLTTDGTYSNPAKETFTTGGGTLGHHHHHHHH
[3]
  binding result: no binding

B20: Clone 311K4E - Variant from first round of affinity maturation (designed binder)
chain: AIEVEDVTDTTALITWTNRSSYYNLHGCELTYGIKDVPGDRTTIDLSSPYVHYSIGNLKPDTEYEVSLICLTTDGTYSNPAKETFTTGGGTLGHHHHHHHH
notes: Secreted His8-tagged form
[4]
  Kd: 18 nM
[6]
  fold increase in potency over 311 in the PBMC assay: ~100 fold

B21: Clone 311K4E_12 - Clone Variant from second round of affinity maturation (designed binder)
chain: AIEVEDVTDTTALITWTNRSSYSNLHGCELAYGIKDVPGDRTTIDLNQPYVHYSIGNLKPDTEYEVSLICLTTDGTYNNPAKETFTTGGGTLGHHHHHHHH
notes: Secreted His8-tagged form
[4]
  Kd: 1.1 nM
[6]
  fold increase in potency in the PBMC assay relative to 311K4E: 12 fold

B22: Clone 311K4E_3 - Clone Variant from second round of affinity maturation (designed binder)
chain: AIEVEDVTDTTALITWINRSSYHNFPHCELAYGIKDVPGDRTTIDLNSPYVHYSIGNLKPDTEYEVSLICLTTDGTYSNPAKETFTTGGGTLGHHHHHHHH
notes: Secreted His8-tagged form
[4]
  Kd: 6.4 nM

B23: Clone 311K4E_11 - Clone Variant from second round of affinity maturation (designed binder)
chain: AIEVEDVTDTTALITWTNRSSYANLPGCELTYGIKDVPGDRTTIDLNSPYVHYSIGNLKPDTEYEVSLICLTTDGTYSNPAKETFTTGGGTLGHHHHHHHH
notes: Secreted His8-tagged form
[4]
  Kd: 6.3 nM
